Reference: US20220389118A1 (Chugai, published 2022)

Key:
[1] = target: T1, human FcγRIIa type R (allotype R131) extracellular domain with C-terminal His tag (human, UniProt P12318 34-217); assay: SPR (Biacore), antibody captured, FcγR analyte
T1 construct: extracellular domain; also called FcγRIIaR; FcγRIIa R type; not shown: His tag at the C terminus
T1 sequence (looked up): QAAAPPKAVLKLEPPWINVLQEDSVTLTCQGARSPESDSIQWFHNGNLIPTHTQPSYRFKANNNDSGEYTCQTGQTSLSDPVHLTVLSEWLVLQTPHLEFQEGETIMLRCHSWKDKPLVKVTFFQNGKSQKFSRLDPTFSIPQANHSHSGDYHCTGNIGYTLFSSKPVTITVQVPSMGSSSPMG

[2] = target: T2, human FcγRIa extracellular domain with C-terminal His tag (human, UniProt P12314 16-292); assay: SPR (Biacore), antibody captured, FcγR analyte
T2 construct: not shown: His tag at the C terminus
T2 sequence (P12314 16-292): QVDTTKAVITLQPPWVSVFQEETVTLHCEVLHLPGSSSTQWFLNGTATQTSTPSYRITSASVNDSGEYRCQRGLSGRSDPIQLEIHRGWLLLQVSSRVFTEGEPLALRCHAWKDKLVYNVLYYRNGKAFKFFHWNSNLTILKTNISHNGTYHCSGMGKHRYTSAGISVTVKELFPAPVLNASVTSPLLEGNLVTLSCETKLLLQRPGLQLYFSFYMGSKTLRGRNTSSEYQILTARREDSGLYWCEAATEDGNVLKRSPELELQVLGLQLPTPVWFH

[3] = target: T3, human FcγRIIIa type V extracellular domain with C-terminal His tag (human, UniProt P08637 17-208); assay: SPR, Ref. Ex. 25
T3 construct: extracellular domain; also called FcγRIIIaV; FcγRIIIa V type
T3 sequence (P08637 17-208 F176V): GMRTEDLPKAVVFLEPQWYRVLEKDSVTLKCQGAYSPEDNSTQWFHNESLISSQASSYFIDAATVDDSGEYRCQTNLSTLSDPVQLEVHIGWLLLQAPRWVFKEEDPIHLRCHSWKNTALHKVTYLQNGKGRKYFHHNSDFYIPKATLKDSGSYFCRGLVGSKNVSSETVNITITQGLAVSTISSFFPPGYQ

[4] = target: T4, human FcγRIIa type H extracellular domain with C-terminal His tag (human, UniProt P12318 34-217); assay: SPR, Ref. Ex. 25
T4 construct: extracellular domain; also called FcγRIIaH; FcγRIIa H
T4 sequence (looked up): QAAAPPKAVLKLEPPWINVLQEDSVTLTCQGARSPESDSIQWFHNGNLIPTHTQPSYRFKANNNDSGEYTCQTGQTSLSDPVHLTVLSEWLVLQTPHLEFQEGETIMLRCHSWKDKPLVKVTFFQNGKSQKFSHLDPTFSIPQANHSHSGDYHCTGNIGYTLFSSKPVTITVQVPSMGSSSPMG

[5] = target: T5, human FcγRIIa type R extracellular domain with C-terminal His tag (human, UniProt P12318 34-217); assay: SPR, Ref. Ex. 25
T5 construct: extracellular domain; also called FcγRIIaR; FcγRIIa R
T5 sequence (looked up): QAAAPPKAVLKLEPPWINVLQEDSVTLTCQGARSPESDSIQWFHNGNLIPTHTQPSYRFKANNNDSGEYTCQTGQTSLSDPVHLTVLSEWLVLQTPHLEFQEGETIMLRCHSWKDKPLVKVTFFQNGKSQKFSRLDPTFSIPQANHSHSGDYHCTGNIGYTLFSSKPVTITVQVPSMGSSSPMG

[6] = target: T6, human FcγRIIa type H (H131) extracellular domain with C-terminal His tag (human, UniProt P12318 34-217); assay: SPR (Biacore), antibody captured, FcγR analyte
T6 construct: extracellular domain; also called FcγRIIaH; not shown: His tag at the C terminus
T6 sequence (looked up): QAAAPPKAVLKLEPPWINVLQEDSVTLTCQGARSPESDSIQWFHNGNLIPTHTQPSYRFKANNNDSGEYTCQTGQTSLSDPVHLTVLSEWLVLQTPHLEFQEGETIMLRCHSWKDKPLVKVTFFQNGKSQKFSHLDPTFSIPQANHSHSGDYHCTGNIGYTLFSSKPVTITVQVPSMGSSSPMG

B1: IL6R-BP223/IL6R-L (antibody, human IgG1, kappa)
heavy: QVQLQESGPGLVKPSETLSLTCAVSGHSISHDHAWSWVRQPPGEGLEWIGFISYSGITNYNPSLQGRVTISRDNSKNTLYLQMNSLRAEDTAVYYCARSLARTTAMDYWGEGTLVTVSSASTKGPSVFPLAPSSKSTSGGTAALGCLVKDYFPEPVTVSWNSGALTSGVHTFPAVLQSSGLYSLSSVVTVPSSSLGTQTYICNVNHKPSNTKVDKKVEPKSCDKTHTCPPCPAPEYLGDDSVFLFPPKPKDTLMISRTPEVTCVVVDVSDEDGEVKFNWYVDGVEVHNAKTKPREEQYNSTYRVVSVLTVLHQDWLNGKEYKCKVSNAALPRPIEKTISKAKGQPREPQVYTLPPSRDELTKNQVSLTCLVKGFYPSDIAVEWESNGQPENNYKTTPPVLDSDGSFFLYSKLTVDKSRWQQGNVFSCSVMHEALHNHYTQESLSLSP
light: not shown
notes: copies: 2 + 2
- Kd [1]: 0.6 µM

B2: IL6R-BP384/IL6R-L (antibody, human IgG1, kappa)
heavy: QVQLQESGPGLVKPSETLSLTCAVSGHSISHDHAWSWVRQPPGEGLEWIGFISYSGITNYNPSLQGRVTISRDNSKNTLYLQMNSLRAEDTAVYYCARSLARTTAMDYWGEGTLVTVSSASTKGPSVFPLAPSSKSTSGGTAALGCLVKDYFPEPVTVSWNSGALTSGVHTFPAVLQSSGLYSLSSVVTVPSSSLGTQTYICNVNHKPSNTKVDKKVEPKSCDKTHTCPPCPAPDLLGDDSVFLFPPKPKDTLMISRTPEVTCVVVDVSDEDGEVKFNWYVDGVEVHNAKTKPREEQDNSTYRVVSVLTVLHQDWLNGKEYKCKVSNKALPRPIERTISKAKGQPREPQVYTLPPSRDELTKNQVSLTCLVKGFYPSDIAVEWESNGQPENNYKTTPPVLDSDGSFFLYSKLTVDKSRWQQGNVFSCSVMHEALHNHYTQESLSLSP
light: not shown
notes: K334R introduced into IL6R-BP230; copies: 2 + 2
- Kd [2]: 0.003 µM

B3: IL6R-PD087/IL6R-L (antibody, human IgG1, kappa)
heavy: QVQLQESGPGLVKPSETLSLTCAVSGHSISHDHAWSWVRQPPGEGLEWIGFISYSGITNYNPSLQGRVTISRDNSKNTLYLQMNSLRAEDTAVYYCARSLARTTAMDYWGEGTLVTVSSASTKGPSVFPLAPSSKSTSGGTAALGCLVKDYFPEPVTVSWNSGALTSGVHTFPAVLQSSGLYSLSSVVTVPSSSLGTQTYICNVNHKPSNTKVDKKVEPKSCDKTHTCPPCPAPELLGMDSVFLFPPKPKDTLYISRTPEVTCVVVDVSHEDPEVKFNWYVDGVEVHNAKTKPREEQYNSTYRVVSVLTVLHQDWLNGKEYKCKVSNKALPAPIEKTISKAKGQPREPQVYTLPPSRDELTKNQVSLTCLVKGFYPSDIAVEWESNGQPENNYKTTPPVLDSDGSFFLYSKLTVDKSRWQQGNVFSCSVMHEALHYHYTQKSLSLSP
light: not shown
notes: also called P238D/G237M; G237M/P238D; copies: 2 + 2
- Kd [3]: 37 µM
- Kd [4]: 20 µM
- Kd [5]: 22 µM

B4: IL6R-BP470/IL6R-L (antibody, human IgG1, kappa)
heavy: QVQLQESGPGLVKPSETLSLTCAVSGHSISHDHAWSWVRQPPGEGLEWIGFISYSGITNYNPSLQGRVTISRDNSKNTLYLQMNSLRAEDTAVYYCARSLARTTAMDYWGEGTLVTVSSASTKGPSVFPLAPSSKSTSGGTAALGCLVKDYFPEPVTVSWNSGALTSGVHTFPAVLQSSGLYSLSSVVTVPSSSLGTQTYICNVNHKPSNTKVDKKVEPKSCDKTHTCPPCPAPDLLGDDSVFLFPPKPKDTLMISRTPEVTCVVVDVSDEDGEVKFNWYVDGVEVHNAKTKPREEQDNSTYRVVSVLTVLHQDWLNGKEYKCKVSNKALPRPITKTISKAKGQPREPQVYTLPPSRDELTKNQVSLTCLVKGFYPSDIAVEWESNGQPENNYKTTPPVLDSDGSFFLYSKLTVDKSRWQQGNVFSCSVMHEALHNHYTQESLSLSP
light: not shown
notes: E333T introduced into IL6R-BP230; copies: 2 + 2
- Kd [6]: 10 µM
